Results published in PMC8143406.

Target: T1, GST-SXL (Sex-lethal) (UniProt P19339)
T1 sequence (P19339 whole entry, looked up): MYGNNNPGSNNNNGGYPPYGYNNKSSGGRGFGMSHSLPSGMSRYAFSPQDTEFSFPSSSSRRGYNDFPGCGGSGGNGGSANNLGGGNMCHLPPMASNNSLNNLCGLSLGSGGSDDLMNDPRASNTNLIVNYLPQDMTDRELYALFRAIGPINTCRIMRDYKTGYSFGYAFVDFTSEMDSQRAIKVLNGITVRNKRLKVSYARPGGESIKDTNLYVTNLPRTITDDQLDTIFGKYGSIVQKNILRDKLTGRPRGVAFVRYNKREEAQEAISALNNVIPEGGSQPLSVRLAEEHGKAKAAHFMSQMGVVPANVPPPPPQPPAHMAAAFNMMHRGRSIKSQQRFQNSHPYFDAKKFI
Test: EMSA
Details: EMSA as in cited refs 28 and 40, buffer, salt and pH not stated, GST-SXL at 166, 55 and 18 ng/ul, SELEX binding at 30 C for 30 min in 100 ul

[1] = within 2-3-fold of tra Py-tract

Row | Sequence | Kd [nM] | Kd [1] [nM]
1 | UUUUUGUUGUUUUUUUU [tra non-sex-specific polypyrimidine tract/3' splice site RNA] | 1 | –
2 | UUUUUUUCUUUUUUUUCU [TnI 5' UTR SXL-binding site RNA (cDNA SELEX clone 10-15h_5)] | – | 1
3 | UUUUUUUUUCUUUUUUUUGU [Gs2 3' UTR SXL-binding site RNA (cDNA SELEX clone 10-15h_14)] | – | 1
